This passage reports reverse-splicing fitness results from the RNAGym collection of RNA variant scans (doi:10.1093/molbev/msab373).

To fix the notation:
B1: Azoarcus group I ribozyme (parent)
chain: GUGCCUUGCGCCGGGAAACCACGCAAGGGAUGGUGUCAAAUUCGGCGAAACCUAAGCGCCCGCCCGGGCGUAUGGCAACGCCGAGCCAAGCUUCGGCGCCUGCGCCGAUGAAGGUGUAGAGACUAGACGGCACCCACCUAAGGCAAACGCUAUGGUGAAGGCAUAGUCCAGGGAGUGGCGAAAGUCACACAAACCGG

Variants of B1 are the subject of this data set. Put plainly: reverse-splicing fitness (ratio to wild type); higher = more active; in vitro selection; Mg2+ level not given. The method, boiled down:
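An in vitro group I ribozyme library with randomized positions was T7-transcribed and gel-purified. In triplicate, 10 pmol RNA in EPPS pH 7.5 was reacted with 50 pmoles of a 30-nt RNA substrate for 1 h at 37 °C across several added MgCl2 levels (1–48 mM), then stopped with EDTA. Products were reverse transcribed from a substrate-complementary primer, PCR-amplified and sequenced (HiSeq 4000). Fitness is a variant's read proportion after selection over that before, normalised to wild type.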
On to C82G A111G A120C A145U C150U C169A U176C, for which the reverse-splicing fitness is 0.0137. The value for C82G A111G A120C A145U C150U C169A U176G was 0.00592; that for C82G A111G A120C A145U C150U C169A U176A was 0.0171; that for C82G A111C A145U C150G U176C was 0.0214.

Take C82G A111C A145U C150G U176A: the reverse-splicing fitness was found to be 0.0124.

As to C82G A111C A145U C150G U176G, the reverse-splicing fitness was determined as 0.0052.

In the case of C82G A111C A145U C150U C169A, the reverse-splicing fitness worked out at 0.00854. For C82G A111C A145U C150U C169G the value was 0.00905. The value for C82G A111C A145U C150U C169U was 0.0121; that for C82G A111G A120C A145U C169G U176C was 0.0163. For C82G A111G A120C A145U C169G U176G the value was 0.00477; for C82G A111G A120C A145U C169G U176A, 0.0157. C82G A111C C150G C169U: the reverse-splicing fitness was found to be 0.00898.

With C82G A111C C150G C169A, the reverse-splicing fitness was 0.00894. For C82G A111C C150G C169G the value was 0.00655; for C82G A111G A120C A145C C150A C169U U176A, 0.0148. Turning to C82G A111G A120C A145C C150A C169U U176G, the reverse-splicing fitness came out at 0.00668.

As for C82G A111G A120C A145C C150A C169U U176C, the reverse-splicing fitness was determined as 0.0126. For C82G A111G A120C A145C C150A U176C the value was 0.0111; for C82G A111G A120C A145C C150A U176A, 0.0112; for C82G A111G A120C A145C C150A U176G, 0.00662. For C82G A111G A120C A145U C150G C169G U176A the value was 0.00957; for C82G A111G A120C A145U C150G C169G U176C, 0.0102.

For the variant C82G A111G A120C A145U C150G C169G U176G, the reverse-splicing fitness amounted to 0.00515.

Take C82G A111G A120C A145U C150U C169G U176C: the reverse-splicing fitness stood at 0.0179. For C82G A111G A120C A145U C150U C169G U176A the value was 0.0171; for C82G A111G A120C A145U C150U C169G U176G, 0.00596; for C82G A111C A145U C150U U176C, 0.0883. For C82G A111C A145U C150U U176G the value was 0.0297.

For C82G A111C A145U C150U U176A, the reverse-splicing fitness came to 0.0841. C82G A111C C150G C169G U176G: the reverse-splicing fitness amounted to 0.00603. For C82G A111C C150G C169G U176C the value was 0.00598; for C82G A111C C150G C169G U176A, 0.00734.

Consider C82G A111G A120C A145C C150A C169G U176G, for which the reverse-splicing fitness came to 0.00633. The value for C82G A111G A120C A145C C150A C169G U176C was 0.0173; that for C82G A111G A120C A145C C150A C169G U176A was 0.026; that for C82G A111C C150G C169A U176A was 0.00955. On to C82G A111C C150G C169A U176G, for which the reverse-splicing fitness was determined as 0.00647. For C82G A111C C150G C169A U176C, the reverse-splicing fitness amounted to 0.0108.

For the variant C82G A111G A120C A145C C150G C169U, the reverse-splicing fitness was 0.00968. For C82G A111G A120C A145C C150G C169G the value was 0.00805. For C82G A111G A120C A145C C150G C169A the value was 0.00872. For C82G A111G A120C A145U C150U U176G the value was 0.00869; for C82G A111G A120C A145U C150U U176C, 0.0348; for C82G A111G A120C A145U C150U U176A, 0.0202. C82G A111G A120C C150A C169U: the reverse-splicing fitness was 0.0123. As to C82G A111G A120C C150A C169G, the reverse-splicing fitness came out at 0.00943. As for C82G A111G A120C C150A C169A, the reverse-splicing fitness is 0.0106. The value for C82G A111G A120C A145G C169U U176G was 0.00492; that for C82G A111G A120C A145G C169U U176A was 0.0142; that for C82G A111G A120C A145G C169U U176C was 0.0147.

For C82G A111G A120C A145U C150A C169U U176C, the reverse-splicing fitness is 0.0136.

For the variant C82G A111G A120C A145U C150A C169U U176A, the reverse-splicing fitness worked out at 0.0146. For C82G A111G A120C A145U C150A C169U U176G the value was 0.00626. The value for C82G A111G A120C A145G C150G was 0.0123; that for C82G A111G A120C A145G C150U was 0.0625. With C82G A111G A120C A145G C150A, the reverse-splicing fitness was found to be 0.0184. For C82G A111G A120C A145G C169G U176A the value was 0.0158. For C82G A111G A120C A145G C169G U176C the value was 0.0188.

For the variant C82G A111G A120C A145G C169G U176G, the reverse-splicing fitness worked out at 0.00476. For C82G A111G A120C A145C C150A the value was 0.011. For C82G A111G A120C A145C C150G, the reverse-splicing fitness stood at 0.0108. As for C82G A111G A120C A145C C150U, the reverse-splicing fitness was determined as 0.0209. Regarding C82G A111C U176A, the reverse-splicing fitness came to 0.133. With C82G A111C U176C, the reverse-splicing fitness stood at 0.139. C82G A111C U176G: the reverse-splicing fitness stood at 0.0517.

Turning to C82G A111C C150A C169A U176G, the reverse-splicing fitness was 0.00921. For C82G A111C C150A C169A U176C the value was 0.0158. On to C82G A111C C150A C169A U176A, for which the reverse-splicing fitness worked out at 0.0183. On to C82G A111C C150U C169G U176A, for which the reverse-splicing fitness was determined as 0.0133. For C82G A111C C150U C169G U176C, the reverse-splicing fitness came out at 0.0174. Turning to C82G A111C C150U C169G U176G, the reverse-splicing fitness was 0.00784. Regarding C82G A111C C150U C169A U176C, the reverse-splicing fitness turned out to be 0.0143. The value for C82G A111C C150U C169A U176G was 0.00817. In the case of C82G A111C C150U C169A U176A, the reverse-splicing fitness amounted to 0.0125.

In the case of C82G A111C C169U U176G, the reverse-splicing fitness is 0.00759.

Regarding C82G A111C C169U U176C, the reverse-splicing fitness was 0.0154. For C82G A111C C169U U176A the value was 0.0194; for C82G A111G A120C A145G C150A C169U U176A, 0.0153; for C82G A111G A120C A145G C150A C169U U176C, 0.015. C82G A111G A120C A145G C150A C169U U176G: the reverse-splicing fitness stood at 0.00817.

Consider C82G A111G, for which the reverse-splicing fitness came to 0.411. For C82G A111G A120C A145C C150U C169G U176C the value was 0.0152.
